From PMC6978347, “Structural basis of p62/SQSTM1 helical filaments and their role in cellular cargo uptake” (Nature Communications, 2020)

What was measured:
[1] = target: the molecule itself; assay: co-sedimentation; sedimentation (pelletation) assay of single purified PB1 domains by ultracentrifugation; soluble and pellet fractions on SDS-PAGE
[2] = target: T1, MBP-tagged wild-type AtNBR1–PB1^1–94 (Arabidopsis thaliana, UniProt Q9SB64 1-94); assay: pull-down; MBP–AtNBR1–PB1 on amylose resin, 4:1 molar excess of AtNBR1–PB1 (mutant); wash 15 mM HEPES pH 7.5, 500 mM NaCl; eluted with 30 mM maltose; SDS-PAGE; conditions: both partners purified
T1 construct: NBR1 autophagy receptor, Arabidopsis thaliana (AtNBR1), residues 1-94 (PB1 domain); Held on amylose resin in the pull-down; also called MBP–AtNBR1–PB1; source: E. coli BL21 (DE3), expressed as described for AtNBR1–PB1, buffer-exchanged; not shown: MBP, N-terminal, kept
T1 sequence (looked up): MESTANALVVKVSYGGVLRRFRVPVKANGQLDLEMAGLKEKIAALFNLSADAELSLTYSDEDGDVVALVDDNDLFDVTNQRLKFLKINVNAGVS

MEKK3^43–127 (MEKK3–PB1) = target: T2, MEKK3^43–127 (MEKK3–PB1) (UniProt Q99759 43-127); assay: not stated; binding of NBR1–PB1 to MEKK3 'also measured'; method not given; conditions: both partners purified
T2 construct: MEKK3, residues 43-127 (PB1 domain); The His6 tag was kept for the gold-labelling and co-pelletation experiments; source: E. coli BL21 (DE3), expressed from pETM11, purified; not shown: His6, N-terminal, kept
T2 sequence (looked up): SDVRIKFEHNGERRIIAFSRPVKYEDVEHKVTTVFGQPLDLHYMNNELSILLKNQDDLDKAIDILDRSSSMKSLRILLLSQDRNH

[3] = target: the molecule itself; assay: co-sedimentation; co-pelleting assay: p62-PB1^1–122 with His6-tagged PB1 partner, 1 h on ice, 49,000 g, 4 °C, 30 min; pellet and supernatant on SDS-PAGE, Coomassie

B1: TFG1^1–95 (Trk-fused gene 1, TFG1–PB1) (domain or fragment, human, UniProt Q92734 1-95, looked up)
chain: MNGQLDLSGKLIIKAQLGEDIRRIPIHNEDITYDELVLMMQRVFRGKLLSNDEVTIKYKDEDGDLITIFDSSDLSFAIQCSRILKLTLFVNGQPR
notes: TFG1 (Trk-fused gene 1), human, residues 1-95 (PB1 domain); source: E. coli BL21 (DE3), purified (Ni-NTA, 3C protease cleavage, Talon resin); not shown: His6, N-terminal, cleaved; MBP, N-terminal, cleaved
binding result [1]: binds

B2: AtNBR1^1–94 (AtNBR1–PB1) (domain or fragment, Arabidopsis thaliana, UniProt Q9SB64 1-94, looked up)
chain: T1 sequence (looked up)
notes: NBR1 autophagy receptor, Arabidopsis thaliana (AtNBR1), residues 1-94 (PB1 domain); Forms helical filaments; also called AtNBR1–PB1^1–94; NBR1^1–94 from Arabidopsis thaliana; source: E. coli BL21 (DE3), purified (Ni-NTA, 3C protease cleavage, Talon resin); not shown: His6, N-terminal, cleaved; MBP, N-terminal, cleaved
binding result [2]: binds | binding result [1]: binds

B3: NBR1^1–85 (human NBR1–PB1) (domain or fragment, UniProt Q14596 1-85, looked up)
chain: MEPQVTLNVTFKNEIQSFLVSDPENTTWADIEAMVKVSFDLNTIQIKYLDEENEEVSINSQGEYEEALKMAVKQGNQLQMQVHEG
notes: NBR1, human, residues 1-85 (PB1 domain); The His6 tag was kept for the gold-labelling and co-pelletation experiments; also called HsNBR1^1–85; wild-type NBR1; source: E. coli BL21 (DE3), expressed from pETM11, purified; not shown: His6, N-terminal, kept
Kd (MEKK3^43–127 (MEKK3–PB1)): 13.3 µM

B4: p62-PB1^1–122 (p62/SQSTM1 residues 1–122) (domain or fragment, human, UniProt Q13501 1-122, looked up)
chain: MASLTVKAYLLGKEDAAREIRRFSFCCSPEPEAEAEAAAGPGPCERLLSRVAALFPALRPGGFQAHYRDEDGDLVAFSSDEELTMAMSYVKDDIFRIYIKEKKECRRDHRPPCAQEAPRNMV
notes: Forms helical filaments; also called p62-PB1 filaments; source: E. coli BL21 (DE3), purified (Ni-NTA, 3C protease cleavage, Talon resin); not shown: His6, N-terminal, cleaved; MBP, N-terminal, cleaved
binding result [3]: binds

B5: p62^1–102 (domain or fragment, human, UniProt Q13501 1-102, looked up)
chain: MASLTVKAYLLGKEDAAREIRRFSFCCSPEPEAEAEAAAGPGPCERLLSRVAALFPALRPGGFQAHYRDEDGDLVAFSSDEELTMAMSYVKDDIFRIYIKEK
notes: p62/SQSTM1, human, residues 1-102 (PB1 domain); also called p62 PB1 domain 1–102; source: expressed and purified
binding result [1]: binds
